Assay results reported in the DeepSol protein solubility set.

assay: soluble on expression in E. coli; label from the status in PepcDB or PDB records

Sequence | soluble on expression in E. coli
MRILWILPYSPWPTTSGGKTRQYHLLRSLAARGHRITVLLHSKQPVSAEDRQALEPFLERLVVLPRRPLRSLSTLLAALFAPYPLLASVNGLSAELQRTATELLREPWDVVQVEHSYSFQPYERPLRDAGQPFVLTEHNVESSLGAATYDRLPGWALPFVRYDQWRYRRWERRVMSQAAAVVAVTEKDARQLGAMLGRPVPVVVNGVDCEHFATARPTPEAQRVLFLGNYEYAPNVDAVEWMLDEILPRVWAHCPEARMSVCGYALPAEWAQRWSDPRIEWQGFVPDLLQLQSSSSVFLAALRHGGGSKLKVLEALAAGLPLASTAQGVSGLELRDGEDYLGGESAEQLANAVVRLLQDPAQARALGENGRAYVRRAHDWSVAASQLEQVYAGLAEGAPACA | not soluble
MGLGSSKRKEEPPHKSEPKTVGRVKRAGARPDEMIAKYAEVLKTRGILPEYFLVHEAKSSQYIDEDGDVANEFYQETMSDGEKRRLCRLMKNLRPKGKERYAIPRLKHDIPVVIWEVQQPQET | not soluble
MEDEIKSFEKDRNLIIEDSKNSKNNIVDVQKLIEALKDEKNAKNIVVDFTEYNPLHNGHKYCMDFGKSEGLFISVIPGPLERSGRGIPYLVNRHIRAEMALLAGADLVVEGPPMGIMGSGQYMQCLIKIFSALNGDIIPRGYIEEETMERVINSINNGNHIKIKPYNISCIETREKLGEKLEIDNYVIASMSYTIYKLKENFPKWNPKFKFIERIEGISGTKIREGVFNNNFESIKHMLPITTIDVFKNFGDNLSEIILKRNEEMVLDTVNNFDLNKYLPENISEKLNEKEYYESIEEIKEYIPRGFSKNNIERTISKLEARIEKETISKYIENYPANLRILNGINNHE | not soluble
MGSDKIHHHHHHMHIAIASGKGGTGKTTLAVNLAVHAARSGHPTVLADCDVEEPNAHLFMPGEPVMTLTHSLPVPAVDKAKCLGDSCRKCVEECRFKALTWMKGVMAFSELCHGCGLCMMICPSGAITETTRPVGTVEIRTPQLPVPAGASAGAAALTLVSGRMRISEAMAPPLIREVKQQAHAVSAGTPNGLTFWDSPPGTSCPMISTVENADYSVLVTEPTPFGLHDLRLAVETLHTLGRPFGVVINRDGMGDGRVREYLDRHRIPLLGTVPHSPQAAQAVSSGRLLIDAVDGMTGCFDRLLHTVLRHAHNAAQHGQEKTA | not soluble
MILVGDGEDLEPPDDFLRREVADSVLNLLGDYRFLTKGYFVSLHAEENGCEVFPPVKNALDAYRAPLFMNAVRKLGLETPEFSIRSEPKFERGVLLPLNPFSKNSAKVVKTSHQYAKAFKRLSMNRYPVVQVKSEKYDSFNLYLWRADKEEYNFIAEKIFKGLRIPLGKVLVDVTDGMAKPFYFMPVEKGEINLRLVFEVLYENCLLR | not soluble
MGSDKIHHHHHHMNIYDQLQAVEDRYEELGELLSDPDVVSDTKRFMELSREEANSRETVAVYREYKQVVQNIADAQEMIKDASGDPELEEMAKEELKNSKVAKEEYEEKLRFLLLPKDPNDDKNIILEIRGAAGGDEAALFAGDLLNMYQKYAENQGWKFEVMEASANGVGGLKEVVAMVSGQSVYSKLKYESGAHRVQRVPVTESQGRVHTSTATVLVMPEVEEVEYEIDPKDLRVDIYHASGAGGQNVNKVATAVRIIHLPTNIKVEMQEERTQQKNRDKAMKIIRARVADHFAQIAQDEQDAERKSTVGTGDRSERIRTYNFPQNRVTDHRIGLTLQKLDSILSGKLDEVIDALILYDQTQKLEELNK | soluble
TSKATIRDLNDPSQVKTLQEKASKGAGTVVAVIDAGFDKNHEAWRLTDKTKARYQSKEDLEKAKKEHGITYGEWVNDKVAYYHDYSKDGKTAVDQEHGTHVSGILSGNAPSETKEPYRLEGAMPEAQLLLMRVEIVNGLADYARNYAQAIRDAVNLGAKVINMSFGNAALAYANLPDETKKAFDYAKSKGVSIVTSAGNDSSFGGKTRLPLADHPDYGVVGTPAAADSTLTVASYSPDKQLTETATVKTDDHQAKEMPVLSTNRFEPNKAYDYAYANRGMKEDDFKDVKGKIALIERGDIDFKDKIANAKKAGAVGVLIYDNQDKGFPIELPNVDQMPAAFISRKDGLLLKDNSKKTITFNATPKVLPTASDTKLSRFSSWGLTADGNIKPDIAAPGQDILSSVANNKYAKLSGTSMSAPLVAGIMGLLQKQYETQYPDMTPSERLDLAKKVLMSSATALYDEDEKAYFSPRQQGAGAVDAKKASAATMYVTDKDNTSSKVHLNNVSDKFEVTVTVHNKSDKPQELYYQATVQTDKVDGKHFALAPKALYETSWQKITIPANSSKQVTVPIDASRFSKDLLAQMKNGYFLEGFVRFKQDPKKEELMSIPYIGFRGDFGNLSALEKPIYDSKDGSSYYHEANSDAKDQLDGDGLQFYALKNNFTALTTESNPWTIIKAVKEGVENIEDIESSEITETIFAGTFAKQDDDSHYYIHRHANGKPYAAISPNGDGNRDYVQFQGTFLRNAKNLVAEVLDKEGNVVWTSEVTEQVVKNYNNDLASTLGSTRFEKTRWDGKDKDGKVVVNGTYTYRVRYTPISSGAKEQHTDFDVIVDNTTPEVATSATFSTEDRRLTLASKPKTSQPIYRERIAYTYMDEDLPTTEYISPNEDGTFTLPEEAETMEGGTVPLKMSDFTYVVEDMAGNITYTPVTKLLEGHS | soluble
MARKEAKMLYIFDLGNVIVDIDFNRVLGAWSDLTRIPLASLKKSFHMGEAFHQHERGEISDEAFAEALCHEMALPLSYEQFSHGWQAVFVALRPEVIAIMHKLREQGHRVVVLSNTNRLHTTFWPEEYPEIRDAADHIYLSQDLGMRKPEARIYQHVLQAEGFSPSDTVFFDDNADNIEGANQLGITSILVKDKTTIPDYFAKVLC | soluble
MGSDKIHHHHHHMKKLYILAIAIAVTTFSCKKNKEDEPAPSGSEQAKVVENYANIVYATYDDALITAKNLRAKAADFVASPSEAGLEEVRAAYIASRTPYIQSEAFRFYSGPIDQDLGGGLTIESSINSWPLEEVYIDYVVGDANAGIINDVAHFPTIDKNVILENNQKEGAGENSVSSGYHAVEFLLWGQDLSETGPGDRKYTDYLVNSDDATNLNQARRGQYLLACIDLIIDNLQTLKEAWKSGNASNYRAGFIADPKGSIGNFLKGVIGYADDELSVERMQVALDTEGDAERQEQEQSCFSDQTYNDIILGQKGIKNVYVGEYVRIDGTIVSGMSVSDLVKAADPKLDSTVRAKIYDTDIKVAAIHAPFDNEILTANTAGTIRVQNAINALHVEAAQYKNAANKIGYLY | not soluble
MAKLFFRYAAMNSGKSTQLLQIANNYESMDKKVALYTSAIDDRYGVGMITSRLNIQRESNTFDAGFDFLAHDYGDTACVLVDEAQFMTPEQAQQLHRLAHKRNIPVICFGLRTDFQGHPFPGSAWLLSLADDVEEIKTICHCGRKATMHIRIDGDGRRVKEGPQVEIGGEARYRAVCGRCFHHDLEHHHHHH | soluble
MATRLLRTNFIRRSYRLPAFSPVGPPTVTASTAVVPEILSFGQQAPEPPLHHPKPTEQSHDGLDLSDQARLFSSIPTSDLLRSTAVLHAAAIGPMVDLGTWVMSSKLMDASVTRGMVLGLVKSTFYDHFCAGEDADAAAERVRSVYEATGLKGMLVYGVEHADDAVSCDDNMQQFIRTIEAAKSLPTSHFSSVVVKITAICPISLLKRVSDLLRWEYKSPNFKLSWKLKSFPVFSESSPLYHTNSEPEPLTAEEERELEAAHGRIQEICRKCQESNVPLLIDAEDTILQPAIDYMAYSSAIMFNADKDRPIVYNTIQAYLRDAGERLHLAVQNAEKENVPMGFKLVRGAYMSSEASLADSLGCKSPVHDTIQDTHSCYNDCMTFLMEKASNGSGFGVVLATHNADSGRLASRKASDLGIDKQNGKIEFAQLYGMSDALSFGLKRAGFNVSKYMPFGPVATAIPYLLRRAYENRGMMATGAHDRQLMRMELKRRLIAGIA | not soluble
MAHHHHHHMFCFSRGLWMRHIGQDVPKRHTHFVLESRLMYEKSFRDCWLHSVCRAISQLDEPLSKTVVGTHQKMLQRKVTCFQYNQYGLFKTPYYRLANVDRYHAVQGVAGTREWVPYVNVSYWTMNKMVRGGNLLVHRVHYTGWGTDSHLKKGGWEHRWNKVLQRNVLQYSRI | not soluble
SPSAQELKEQGNRLFVGRKYPEAAACYGRAITRNPLVAVYYTNRALCYLKMQQPEQALADCRRALELDGQSVKAHFFLGQCQLEMESYDEAIANLQRAYSLAKEQRLNFGDDIPSALRIAKKKRWNSIEERRIHQESELHSYLTRLIAAERERELEECQRNHEGHEDDGHIRAQQACIEAKHDKYMADMDELFSQVDEKRKKRDIPDYLCGKISFELMREPCITPSGITYDRKDIEEHLQRVGHFNPVTRSPLTQEQLIPNLAMKEVIDAFISENGWVEDY | soluble
MAHHHHHHMSSVINYEKFEKIDISSSDDDNKKKLNPHLTKLDNKDKVVIGPNGLTILKNNNDEKIKHDKYNNTSKNVEEIKDKNDEYKTIYNETNNEILNNKNDNIHVQNMNNYVADDKKYKDMFINGAVVPYEYIWNQSIHYINAFICLPLNCKAKNLIVDIKEDKLIVKIKNYKCGIIYNNNNNNNKTNQHNTQSNSFHDNVEILVDKKFPFKINTDEDTQIWEIKNMQINWYTLFNLSNEINNQNVHYLFEDYNMLDKQETFLYISVKKINEIENAYIWWSTLFKNEHPIKIENLPSRSSTNKAKKTMNSFKTAWDEAHEIFKKNISMKQLPFRIDSS | soluble
MSLGEGFPSFEEMVEKELEGYSGFRFLDRGIYAKQLEQWFRFFPKKQFLILKSENFFEDPAKEFRKVICFLNLPVWELPEYANVNWKVLARSKRVERYQKINKETRERLLYYFKPFNDQLYALINKNFGWKEGHHHHHH | not soluble
MPAALIKDFLLTQGLKLPLDEVRAAYLTAQTVMDMGTASIDRSVLWRSDEGWKLADYLSCDNVREDALKRLFMALDSVFSRSTGVRSAAVYALMPSENQAFQLICLSRQGEVLENLWDLDEAAGKVSLACRSAQSGWMNVASDVRRWLDLGELSGERNHASAAQISIPVCTESGGVLGVVHVEFECAECAGTAAQVEWVALALALSEPLKLLLGMSAGKDGSEDV | not soluble
ATGDTAATAAPAKAEKTAGSVLRDAKRVIIVPGYGMALAQAQHQVRQLADKLTANGTEVRYAIHPVAGRMPGHMNVLLCEADVPYDQLFEMDAINGDFAQTDAVVVIGANDVMNPAARNAEGTPIYGMPVLNVDDAPEVIICNFDLKPGYAGVDNPLYTRATGVFLKLGDAKESLAEIMKEMDIA | not soluble
MKGVRSMMGNLVITIGRECGSAGRLIGQKLAADLGVKCYDKELLTLAAKNSGLCEELFKTHDEKPTSSFLYSLVMDTYSLGYNTSAYMDMPINHKIFLAQFDTIKKLAEEESCVIVGRCADYALADYPNTVSVFICGDEEDKIRHLMERHNVDEAKAKDIMIKTDKRRASYYNYYSSKRWGSCKSYDMCISSSAVGYDGAVDIIKEFAKKKQEFLKTKNYK | not soluble
MGKNEILWGIAPIGWRNDDMPEIGAGNTLQHLLSDIVVARFQGTEVGGFFPEPAILNKELKLRNLRIAGKWFSSFILRDGLGEAAKTFTLHCEYLQQVNADVAVVSEQTYSVQSLEKNVFTEKPHFTDDEWERLCEGLNHLGEIAAQHGLKLVYHHHLGTGVQTAEEVDRLMAGTDPAHVHLLYDTGHAYISDGDYMGMLEKHIGRIKHVHFKDARLNVMEQCRLEGQSFRQSFLKGMFTVPGDGCIDFREVYQLLLKHSYSGWIVIEAEQDPDVANPLEYALIARNYIDQQLLDLAMGHHHHHHSH | soluble
MDALAIINKYYPEDNELKHILLAHSRSVADKALWIAGKHPELNLDKQFLEEAAMLHDIGIFMTDAEGICCFGSYPYICHGYLGADLMRKEGFPRHALVCERHTGAGMSLQSIIDQQLPVPHRNMVPVSLEEQVICFADKFFSKTHLDREKSVEKALKSISRYGEDGIIRFNHWCECFL | soluble
